Test results taken from patent US20090238814A1.

What was measured:
[1] = target: concanavalin A (Canavalia ensiformis, ConA)-sepharose 4B (Canavalia ensiformis) (UniProt P02866); experiment: ConA-sepharose lectin affinity chromatography, enzyme activity of fractions
[2] = target: wheat germ agglutinin (Triticum vulgaris, WGA)-agarose CL-4B (Triticum vulgaris) (UniProt P10968); experiment: WGA-agarose lectin affinity chromatography, eluted with 0.1 M GlcNAc
[3] = target: concanavalin A (Canavalia ensiformis, ConA)-sepharose 4B (Canavalia ensiformis) (UniProt P02866); experiment: ConA-sepharose lectin affinity chromatography, eluted with 0.01 M alpha-methyl-D-mannopyranoside
[4] = target: wheat germ agglutinin (Triticum vulgaris, WGA)-agarose CL-4B (Triticum vulgaris) (UniProt P10968); experiment: WGA-agarose lectin affinity chromatography, enzyme activity of fractions
[5] = target: concanavalin A (Canavalia ensiformis, ConA)-sepharose 4B (Canavalia ensiformis) (UniProt P02866); experiment: ConA-sepharose lectin affinity chromatography, eluted with 0.5 M alpha-methyl-D-mannopyranoside
[6] = target: wheat germ agglutinin (Triticum vulgaris, WGA)-agarose CL-4B (Triticum vulgaris) (UniProt P10968); experiment: WGA-agarose lectin affinity chromatography, eluted with 0.5 M GlcNAc
[7] = target: wheat germ agglutinin (Triticum vulgaris, WGA)-agarose CL-4B (Triticum vulgaris) (UniProt P10968); experiment: WGA-agarose lectin affinity chromatography after neuraminidase digestion, eluted with 0.1 M GlcNAc
[8] = target: wheat germ agglutinin (Triticum vulgaris, WGA)-agarose CL-4B (Triticum vulgaris) (UniProt P10968); experiment: WGA-agarose lectin affinity chromatography after neuraminidase digestion of the enzyme
[9] = target: wheat germ agglutinin (Triticum vulgaris, WGA)-agarose CL-4B (Triticum vulgaris) (UniProt P10968); experiment: WGA-agarose lectin affinity chromatography after neuraminidase digestion, eluted with 0.5 M GlcNAc
[10] = target: wheat germ agglutinin (Triticum vulgaris, WGA)-agarose CL-4B (Triticum vulgaris) (UniProt P10968); experiment: WGA-agarose lectin affinity chromatography

Chain of UniProt P10968 (P10968 27-197): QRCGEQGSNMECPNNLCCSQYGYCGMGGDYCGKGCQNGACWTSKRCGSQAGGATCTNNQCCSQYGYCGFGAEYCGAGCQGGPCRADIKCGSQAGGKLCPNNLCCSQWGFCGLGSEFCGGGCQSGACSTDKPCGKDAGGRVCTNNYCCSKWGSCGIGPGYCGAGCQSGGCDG

Substance	percent of relative activity in Unbound fraction [1]	percent of relative activity in Weakly Bound fraction [2]	percent of relative activity in Weakly Bound fraction [3]	percent of relative activity in Unbound fraction [4]	percent of relative activity in Strongly Bound fraction [5]	percent of relative activity in Strongly Bound fraction [6]	percent of relative activity in Weakly Bound fraction [7]	percent of relative activity in Unbound fraction [8]	percent of relative activity in Strongly Bound fraction [9]	percent strongly bound to the WGA column [10]
CD6-TNSALP (human TNSALP anchorless at the C-terminal tagged with a stretch of six L-Asp) (from UniProt P05186 18-505) (enzyme)	4%	32%	60%	3%	36%	65%	–	–	–	–
CD8-TNSALP (human TNSALP anchorless at the C-terminal tagged with a stretch of eight L-Asp) (from UniProt P05186 18-505) (enzyme)	2%	23%	59%	1%	39%	76%	–	–	–	–
CD6-TNSALP after neuraminidase digestion (from UniProt P05186 18-505) (enzyme)	–	–	–	–	–	–	11%	2%	86%	–
anchorless rhTNSALP after neuraminidase digestion (from UniProt P05186 18-505) (enzyme)	–	–	–	–	–	–	9%	0%	91%	–
CD8-TNSALP after neuraminidase digestion (from UniProt P05186 18-505) (enzyme)	–	–	–	–	–	–	4%	4%	92%	–
anchorless recombinant human TNSALP (human tissue-nonspecific alkaline phosphatase anchorless at the C-terminal) (from UniProt P05186 18-505) (enzyme)	3%	66%	59%	0%	38%	33%	–	–	–	34%
